In patent publication US20180137234A1 (University of Washington, published 2018):

Assays:
[1] = target: the molecule itself; assay: X-ray crystal structure of the homotrimer
[2] = target: the molecule itself; assay: X-ray crystal structure of the homodimer
[3] = target: the molecule itself; assay: SEC-MALS and SAXS of the original construct

Protein	binding result [1]	binding result [2]	also measured
1na0C3_3 (designed binder, One subunit of a designed homotrimer (C3) built from a consensus designed tpr protein) NLAEKMYKAGNAMYRKGQYTIAIIAYTLALLKDPNNAEAWYNLGNAAYKKGEYDEAIEAYQKALELDPNNAEAWYNLGNAYYKQGDYDEAIEYYQKALELDPNNAEAKQNLGNAKQKQG	binds	–	–
HR00C3_2 (designed binder, One subunit of a designed homotrimer (C3) built from a de novo designed repeat protein) IEEVVAEMIDILAESSKKSIEELARAADNKTTEKAVAEAIEEIARLATAAIQLIEALAKNLASEEFMARAISAIAELAKKAIEAIYRLADNHTTDTFMARAIAAIANLAVTAILAIAALASNHTTEEFMARAISAIAELAKKAIEAIYRLADNHTTDKFMAAAIEAIALLATLAILAIALLASNHTTEEFMAKAISAIAELAKKAIEAIYRLADNHTSPTYIEKAIEAIEKIARKAIKAIEMLAKNITTEEYKEKAKSAIDEIREKAKEAIKRLEDNRT	binds	–	–
ank3C2_1 (designed binder, One subunit of a designed homodimer (C2) built from an idealized ankyrin repeat protein; It was expressed in E. coli with an N- or C-terminal (His)6 tag) SELGKRLIEAAENGNKDRVKDLLENGADVNASDSDGKTPLHLAAENGHAKVVLLLLEQGADPNAKDSDGKTPLHLAAENGHAVVVALLLMHGADPNAKDSDGKTPLHLAAENGHEEVVILLLAMGADPNTSDSDGRTPLDLAREHGNEEVVKVLEDH	–	binds	–
ank1C2_1 (designed binder, One subunit of a designed homodimer (C2) built from an idealized ankyrin repeat protein; also called ank1C2_G3; ANK1C2-G3) SELGKRLIEAAENGNKDRVKDLIENGADVNASDSDGRTPLHHAAENGHAEVVALLIEKGADVNAKDSDGRTPLHHAAENGHDEVVLILLLKGADVNAKDSDGRTPLHHAAENGHKRVVLVLILAGADVNTSDSDGRTPLDLAREHGNEEVVKALEKQ	–	binds	–
HR04C4_1 (designed binder, One subunit of a designed homotetramer (C4); also called tj10C4_G1) DECEEKARRVAEKVERLKRSGTSEDEIAEEVAREISEVIRTLKESGSSYEVICECVARIVAEIVEALKRSGTSAVEIAKIVARVISEVIRTLKESGSSYEVICECVARIVAEIVEALKRSGTSAAIIALIVALVISEVIRTLKESGSSFEVILECVIRIVLEIIEALKRSGTSEQDVMLIVMAVLLVVLATLQLSGS	–	–	binding result [3]: binds
